Data as given in US20260242507A1 (KITE PHARMA, published 2026).

T1: human GPC5 overexpressed on K562 cells (human) (UniProt P78333)
T1 sequence (looked up): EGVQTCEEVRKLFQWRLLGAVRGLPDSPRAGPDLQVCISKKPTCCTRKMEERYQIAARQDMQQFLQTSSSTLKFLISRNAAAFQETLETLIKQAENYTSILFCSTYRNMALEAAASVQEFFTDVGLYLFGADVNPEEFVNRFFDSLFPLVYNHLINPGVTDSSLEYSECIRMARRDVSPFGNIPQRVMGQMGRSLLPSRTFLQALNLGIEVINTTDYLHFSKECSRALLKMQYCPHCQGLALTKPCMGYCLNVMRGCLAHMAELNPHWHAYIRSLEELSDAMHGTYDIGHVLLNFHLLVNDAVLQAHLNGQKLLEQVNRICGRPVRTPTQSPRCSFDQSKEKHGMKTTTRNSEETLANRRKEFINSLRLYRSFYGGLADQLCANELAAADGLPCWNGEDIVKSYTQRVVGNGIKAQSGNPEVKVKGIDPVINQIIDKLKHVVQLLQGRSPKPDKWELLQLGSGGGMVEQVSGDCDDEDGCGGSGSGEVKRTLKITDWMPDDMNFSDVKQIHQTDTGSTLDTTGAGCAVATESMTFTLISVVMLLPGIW


Legend:
[1] = target: T2, recombinant human GPC3(Q25-H559)-6xHis (human, UniProt P51654 25-559); assay: BLI (Octet Red96), scFv mFc captured on an AMC biosensor, rhGPC3 lot 2 at a single 500 nM concentration, 1:1 model
T2 construct: range 25-559; also called rhGPC3; RhGPC3

[2] = target: mouse GPC3 overexpressed on K562 cells (mouse) (UniProt Q8CFZ4); assay: cell-based or functional assay
[3] = target: human GPC3 (glypican 3), full length, on cells (human) (UniProt P51654); assay: cell-based or functional assay
[4] = target: T1, human GPC5 overexpressed on K562 cells (human); assay: cell-based or functional assay
[5] = target: T2, recombinant human GPC3(Q25-H559)-6xHis; assay: BLI (Octet Red96), scFv-Fc captured on AMC biosensors, rhGPC3 lot 2 as analyte, 1:1 model, global fit
Protocol: (§1) A kinetics constant for mAb1-1 scFv mFc binding to its target, GPC3, was determined using a Sartorius Octet Red96 with AMC biosensors. mAb1-1 scFv-Fc was diluted to 2 ug/mL and captured onto 7 AMC biosensor tips under agitation. One biosensor was left blank as a reference. Two lots of recombinant human GPC3(Q25-H559)-6×His (rhGPC3) at 464.3, 154.8, 51.59, 17.2, 5.73, 1.911 and 0 nM were used as analytes. The association phase was measured for 90 sec and the dissociation was measured for 120 sec. All measurements were corrected for baseline drift by subtracting a control sensor exposed to running buffer only. The data were analyzed using a 1:1 interaction model with global fitting for each analyte lot separately, using Octet analysis software.

[6] = target: T2, recombinant human GPC3(Q25-H559)-6xHis; assay: BLI (Octet Red96), scFv-Fc captured on AMC biosensors, rhGPC3 lot 1 as analyte, 1:1 model, global fit
Protocol: as §1

Chain of human GPC3 (glypican 3), full length, on cells (human) (P51654 25-554 limits assumed): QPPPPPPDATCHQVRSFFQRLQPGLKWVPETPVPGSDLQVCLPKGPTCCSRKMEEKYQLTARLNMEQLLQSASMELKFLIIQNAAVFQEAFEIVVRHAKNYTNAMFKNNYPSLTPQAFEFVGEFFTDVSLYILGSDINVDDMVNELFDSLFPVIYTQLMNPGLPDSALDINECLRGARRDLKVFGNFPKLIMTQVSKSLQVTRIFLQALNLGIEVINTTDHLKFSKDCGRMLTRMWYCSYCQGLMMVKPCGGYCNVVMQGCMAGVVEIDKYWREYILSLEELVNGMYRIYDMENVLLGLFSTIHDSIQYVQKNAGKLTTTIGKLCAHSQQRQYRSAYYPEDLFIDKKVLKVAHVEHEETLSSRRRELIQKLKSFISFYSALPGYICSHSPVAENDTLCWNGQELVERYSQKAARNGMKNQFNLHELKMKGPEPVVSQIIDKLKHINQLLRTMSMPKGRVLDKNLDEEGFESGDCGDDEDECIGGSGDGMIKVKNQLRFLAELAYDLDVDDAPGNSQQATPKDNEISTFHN
Chain of mouse GPC3 overexpressed on K562 cells (mouse) (Q8CFZ4 25-579): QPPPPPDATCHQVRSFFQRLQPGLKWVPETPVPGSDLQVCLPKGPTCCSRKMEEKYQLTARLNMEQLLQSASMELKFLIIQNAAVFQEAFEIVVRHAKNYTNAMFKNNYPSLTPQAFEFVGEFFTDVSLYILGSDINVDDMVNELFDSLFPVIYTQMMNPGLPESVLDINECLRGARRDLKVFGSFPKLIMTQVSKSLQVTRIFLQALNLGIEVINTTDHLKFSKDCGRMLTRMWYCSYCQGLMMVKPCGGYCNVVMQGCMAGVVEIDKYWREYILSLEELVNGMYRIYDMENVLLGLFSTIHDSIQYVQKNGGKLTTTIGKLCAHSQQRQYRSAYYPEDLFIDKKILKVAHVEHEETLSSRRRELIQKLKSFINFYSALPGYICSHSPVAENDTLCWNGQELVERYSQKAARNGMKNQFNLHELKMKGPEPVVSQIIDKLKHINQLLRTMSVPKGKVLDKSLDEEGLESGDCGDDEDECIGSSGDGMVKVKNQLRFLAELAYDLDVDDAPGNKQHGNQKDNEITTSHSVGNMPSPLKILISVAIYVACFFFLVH
T2 sequence (P51654 other isoform, or with tags, fused parts or gaps limits assumed, form in doubt): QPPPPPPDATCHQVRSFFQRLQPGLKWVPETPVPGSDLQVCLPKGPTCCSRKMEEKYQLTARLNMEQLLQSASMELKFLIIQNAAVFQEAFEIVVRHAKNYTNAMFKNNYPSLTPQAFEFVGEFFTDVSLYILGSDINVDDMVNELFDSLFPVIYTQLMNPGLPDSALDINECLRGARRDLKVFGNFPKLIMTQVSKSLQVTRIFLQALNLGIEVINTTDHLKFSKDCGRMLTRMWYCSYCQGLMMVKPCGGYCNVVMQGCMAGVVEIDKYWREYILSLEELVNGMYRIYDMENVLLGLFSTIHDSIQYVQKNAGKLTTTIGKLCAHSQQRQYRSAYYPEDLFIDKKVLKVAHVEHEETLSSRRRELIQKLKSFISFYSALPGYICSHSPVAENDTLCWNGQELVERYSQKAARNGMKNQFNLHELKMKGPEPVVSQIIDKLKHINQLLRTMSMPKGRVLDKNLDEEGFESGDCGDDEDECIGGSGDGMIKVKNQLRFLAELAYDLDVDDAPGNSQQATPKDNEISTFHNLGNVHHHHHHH

% dead target cells, flow cytometry, 48h, K562-mouse GPC3 [2] [%] | % cytolysis of Hep3B at 164h, xCELLigence, 500 CAR T cells, Donor 1 [3] [%] | % cytolysis of Hep3B at 164h, xCELLigence, 500 CAR T cells, Donor 2 [3] [%] | % dead target cells, flow cytometry, 48h, Hep3B [3] [%] | % dead target cells, flow cytometry, 48h, K562-human GPC5 [4] [%] | Molecule | further results
50.5 | 97.1 | 89.4 | 89.9 | 16.3 | hmAb1-3 CAR (protein, part only; not given: hinge, transmembrane and signaling domains, part only) chain, part: QVQLVQSGAEVKKPGASVKVSCKTSGYTFTDYYIHWVRQAPGQGLEWMGEIYPGSGNTYYAQKFQGRVTMTADTSTSTAYMELSSLRSEDTAVYYCARGNDYDAWFVYWGQGTLVTVSSGSTSGSGKPGSGEGSTKGDIVMTQSPDSLAVSLGERATINCKSSQSLLNSGTRKNYLAWYQQKPGQPPKLLIYWASIRESGVPDRFSGSGSGTDFTLTISSLQAEDVAVYYCKQSYSLYTFGQGTKLEIK | –
52.9 | 99.3 | 95 | 90.5 | 18.5 | hmAb1-5 CAR (protein, part only; not given: hinge, transmembrane and signaling domains, part only) chain, part: QVQLVQSGAEVKKPGASVKVSCKTSGYTFTDYYIHWVRQAPGQGLEWIGEIYPGSGNTYYAQKFQGRATLTADTSTSTAYMEFSSLRSEDTAVYYCARGNDYDAWFVYWGQGTLVTVSSGSTSGSGKPGSGEGSTKGDIVMTQSPDSLAVSLGERVTMNCKSSQSLLNSGTRKNYLAWYQQKPGQPPKLLIYWASIRESGVPDRFSGSGSGTDFTLTISSVQAEDVAVYYCKQSYSLYTFGQGTKLEIK | –
52.7 | 94.9 | 89.6 | 89.8 | 16.4 | hmAb1-4 CAR (protein, part only; not given: hinge, transmembrane and signaling domains, part only) chain, part: QVQLVQSGAEVKKPGASVKVSCKTSGYTFTDYYIHWVRQAPGQGLEWIGEIYPGSGNTYYAQKFQGRATLTADTSTSTAYMEFSSLRSEDTAVYYCARGNDYDAWFVYWGQGTLVTVSSGSTSGSGKPGSGEGSTKGDIVMTQSPDSLAVSLGERATINCKSSQSLLNSGTRKNYLAWYQQKPGQPPKLLIYWASIRESGVPDRFSGSGSGTDFTLTISSLQAEDVAVYYCKQSYSLYTFGQGTKLEIK | –
53.9 | 96.4 | 93.4 | 91.1 | 17.7 | hmAb1-1 CAR (protein, part only; not given: hinge, transmembrane and signaling domains, part only) chain, part: QVQLVQSGAEVKKPGASVKVSCKTSGYTFTDYYIHWVRQAPGQGLEWMGEIYPGSGNTYYAQKFQGRVTMTADTSTSTAYMELSSLRSEDTAVYYCARGNDYDAWFVYWGQGTLVTVSSGSTSGSGKPGSGEGSTKGDIVMTQSPDSLAVSLGERVTMNCKSSQSLLNSGTRKNYLAWYQQKPGQPPKLLIYWASIRESGVPDRFSGSGSGTDFTLTISSVQAEDVAVYYCKQSYSLYTFGQGTKLEIK | –

Second part, the molecule before the results:

Molecule | % dead target cells, flow cytometry, 48h, K562-mouse GPC3 [2] [%] | % cytolysis of Hep3B at 164h, xCELLigence, 500 CAR T cells, Donor 1 [3] [%] | % cytolysis of Hep3B at 164h, xCELLigence, 500 CAR T cells, Donor 2 [3] [%] | % dead target cells, flow cytometry, 48h, Hep3B [3] [%] | % dead target cells, flow cytometry, 48h, K562-human GPC5 [4] [%] | further results
YP7 scFv mFc (Fc fusion) | – | – | – | – | – | Kd [1]: 8.73 nM; koff [1]: 0.000675 s⁻¹; kon [1]: 77300 M⁻¹ s⁻¹
hmAb1-2 CAR (protein, part only; not given: hinge, transmembrane and signaling domains, part only) chain, part: QVQLVQSGAEVKKPGASVKVSCKASGYTFTDYYIHWVRQAPGQGLEWMGEIYPGSGNTYYAQKFQGRVTMTRDTSTSTVYMELSSLRSEDTAVYYCARGNDYDAWFVYWGQGTLVTVSSGSTSGSGKPGSGEGSTKGDIVMTQSPDSLAVSLGERATINCKSSQSLLNSGTRKNYLAWYQQKPGQPPKLLIYWASIRESGVPDRFSGSGSGTDFTLTISSLQAEDVAVYYCKQSYSLYTFGQGTKLEIK | 48.3 | 95.7 | 91.3 | 89.4 | 18.2 | –
mAb1-1 scFv-Fc (single chain variable fragment fused to a murine IgG2A fragment crystallizable domain) (Fc fusion, also called mAb1-1 scFv mFc; not shown: murine IgG2A fragment crystallizable (Fc) domain) QVQLVQSGAEVKKPGASVKVSCKTSGYTFTDYYIHWVRQAPGQGLEWMGEIYPGSGNTYYAQKFQGRVTMTADTSTSTAYMELSSLRSEDTAVYYCARGNDYDAWFVYWGQGTLVTVSSGSTSGSGKPGSGEGSTKGDIVMTQSPDSLAVSLGERVTMNCKSSQSLLNSGTRKNYLAWYQQKPGQPPKLLIYWASIRESGVPDRFSGSGSGTDFTLTISSVQAEDVAVYYCKQSYSLYTFGQGTKLEIK | – | – | – | – | – | Kd [5]: 35.2 nM; koff [5]: 0.00785 s⁻¹; kon [5]: 223000 M⁻¹ s⁻¹; Kd [6]: 32.7 nM; koff [6]: 0.00712 s⁻¹; kon [6]: 218000 M⁻¹ s⁻¹
mAb1-1_DNR2 CAR (mAb1-1 CAR co-expressed with TGFbDNR2) (protein, part only; not given: CAR signaling domains and DN TGFbR2, part only) chain, part: QVQLVQSGAEVKKPGASVKVSCKTSGYTFTDYYIHWVRQAPGQGLEWMGEIYPGSGNTYYAQKFQGRVTMTADTSTSTAYMELSSLRSEDTAVYYCARGNDYDAWFVYWGQGTLVTVSSGSTSGSGKPGSGEGSTKGDIVMTQSPDSLAVSLGERVTMNCKSSQSLLNSGTRKNYLAWYQQKPGQPPKLLIYWASIRESGVPDRFSGSGSGTDFTLTISSVQAEDVAVYYCKQSYSLYTFGQGTKLEIK | – | – | – | – | – | % cytolysis, xCELLigence, Hep3B, High E:T (1,000 CAR T cells) [3]: 100%; % cytolysis, xCELLigence, Hep3B, Low E:T (500 CAR T cells) [3]: 99%; % cytolysis, xCELLigence, Huh7, High E:T (10,000 CAR T cells) [3]: 100%; % cytolysis, xCELLigence, Huh7, Low E:T (500 CAR T cells) [3]: 44%; IFNg secretion after 24 h coculture with Hep3B, Luminex, replicate 1 [3]: 37700 pg/mL; IFNg secretion after 24 h coculture with Hep3B, Luminex, replicate 2 [3]: 39400 pg/mL; IFNg secretion after 24 h coculture with Hep3B, Luminex, replicate 3 [3]: 44500 pg/mL
